Our source for the Kd and percent of the total peak area in multimeric complexes values is PMC10011572 (Nature Communications, 2023).

The target in assay [1] is zanidatamab (human). Nature of the assay: SPR; zani captured on immobilised goat anti-human Fc (CM5, Biacore T200), HER2 ECD 3.75-60 nM flowed; single-cycle, 1:1 Langmuir fit; apparent; capture/MW 0.273135738 RU/kDa.
Assay [2] addresses zanidatamab precursor (human). Nature of the assay: SPR; zani precursor captured on immobilised goat anti-human Fc (CM5, Biacore T200), HER2 ECD 3.75-60 nM flowed; single-cycle, 1:1 Langmuir fit; apparent; capture/MW 4.911623982 RU/kDa.
The target in assay [3] is zanidatamab precursor (human). Nature of the assay: SPR; zani precursor captured on immobilised goat anti-human Fc (CM5, Biacore T200), HER2 ECD 3.75-60 nM flowed; single-cycle, 1:1 Langmuir fit; apparent; capture/MW 3.104479294 RU/kDa.
Assay [4] concerns the target zanidatamab precursor (human). Nature of the assay: SPR; zani precursor captured on immobilised goat anti-human Fc (CM5, Biacore T200), HER2 ECD 3.75-60 nM flowed; single-cycle, 1:1 Langmuir fit; apparent; capture/MW 0.555428881 RU/kDa.
Assay [5] deals with zanidatamab (human). Nature of the assay: SPR; zani captured on immobilised goat anti-human Fc (CM5, Biacore T200), HER2 ECD 3.75-60 nM flowed; single-cycle, 1:1 Langmuir fit; apparent; capture/MW 1.217496547 RU/kDa.
For assay [6], the target named is zanidatamab (human). As to the kind of experiment: SPR; zani captured on immobilised goat anti-human Fc (CM5, Biacore T200), HER2 ECD 3.75-60 nM flowed; single-cycle, 1:1 Langmuir fit; apparent; capture/MW 2.37652122 RU/kDa.
Assay [7] concerns the target zanidatamab (human). As to the kind of experiment: SPR; zani captured on immobilised goat anti-human Fc (CM5, Biacore T200), HER2 ECD 3.75-60 nM flowed; single-cycle, 1:1 Langmuir fit; apparent; capture/MW 0.484595665 RU/kDa.
Assay [8] deals with zanidatamab precursor (human). Nature of the assay: SPR; zani precursor captured on immobilised goat anti-human Fc (CM5, Biacore T200), HER2 ECD 3.75-60 nM flowed; single-cycle, 1:1 Langmuir fit; apparent; capture/MW 0.312928952 RU/kDa.
Assay [9] concerns the target zanidatamab (human). Nature of the assay: SPR; zani captured on immobilised goat anti-human Fc (CM5, Biacore T200), HER2 ECD 3.75-60 nM flowed; single-cycle, 1:1 Langmuir fit; apparent; capture/MW 0.793775709 RU/kDa.
Assay [10] addresses zanidatamab precursor (human). As to the kind of experiment: SPR; zani precursor captured on immobilised goat anti-human Fc (CM5, Biacore T200), HER2 ECD 3.75-60 nM flowed; single-cycle, 1:1 Langmuir fit; apparent; capture/MW 1.267722403 RU/kDa.
The target in assay [11] is zanidatamab precursor (human). As to the kind of experiment: SPR; zani precursor captured on immobilised goat anti-human Fc (CM5, Biacore T200), HER2 ECD 3.75-60 nM flowed; single-cycle, 1:1 Langmuir fit; apparent; capture/MW 1.154875901 RU/kDa.
Assay [12] has as its target zanidatamab precursor (human). Nature of the assay: SPR; zani precursor captured on immobilised goat anti-human Fc (CM5, Biacore T200), HER2 ECD 3.75-60 nM flowed; single-cycle, 1:1 Langmuir fit; apparent; capture/MW 0.356947091 RU/kDa.
Assay [13] addresses zanidatamab precursor (human). Nature of the assay: SPR; zani precursor captured on immobilised goat anti-human Fc (CM5, Biacore T200), HER2 ECD 3.75-60 nM flowed; single-cycle, 1:1 Langmuir fit; apparent; capture/MW 2.483423369 RU/kDa.
The target in assay [14] is zanidatamab precursor (human). As to the kind of experiment: SPR; zani precursor captured on immobilised goat anti-human Fc (CM5, Biacore T200), HER2 ECD 3.75-60 nM flowed; single-cycle, 1:1 Langmuir fit; apparent; capture/MW 2.899594865 RU/kDa.
For assay [15], the target named is zanidatamab precursor (human). Nature of the assay: SPR; zani precursor captured on immobilised goat anti-human Fc (CM5, Biacore T200), HER2 ECD 3.75-60 nM flowed; single-cycle, 1:1 Langmuir fit; apparent; capture/MW 4.555477221 RU/kDa.
Assay [16] addresses zanidatamab precursor (human). As to the kind of experiment: SPR; zani precursor captured on immobilised goat anti-human Fc (CM5, Biacore T200), HER2 ECD 3.75-60 nM flowed; single-cycle, 1:1 Langmuir fit; apparent; capture/MW 0.703489894 RU/kDa.
Assay [17] deals with zanidatamab precursor (human). As to the kind of experiment: SPR; zani precursor captured on immobilised goat anti-human Fc (CM5, Biacore T200), HER2 ECD 3.75-60 nM flowed; single-cycle, 1:1 Langmuir fit; apparent; capture/MW 0.365750719 RU/kDa.
Assay [18] deals with zanidatamab precursor (human). As to the kind of experiment: SPR; zani precursor captured on immobilised goat anti-human Fc (CM5, Biacore T200), HER2 ECD 3.75-60 nM flowed; single-cycle, 1:1 Langmuir fit; apparent; capture/MW 4.096087916 RU/kDa.
For assay [19], the target named is zanidatamab (human). Nature of the assay: SPR; zani captured on immobilised goat anti-human Fc (CM5, Biacore T200), HER2 ECD 3.75-60 nM flowed; single-cycle, 1:1 Langmuir fit; apparent; capture/MW 2.080156929 RU/kDa.
Assay [20] addresses zanidatamab (human). As to the kind of experiment: SPR; zani captured on immobilised goat anti-human Fc (CM5, Biacore T200), HER2 ECD 3.75-60 nM flowed; single-cycle, 1:1 Langmuir fit; apparent; capture/MW 0.62396698 RU/kDa.
The target in assay [21] is zanidatamab precursor (human). Nature of the assay: SPR; zani precursor captured on immobilised goat anti-human Fc (CM5, Biacore T200), HER2 ECD 3.75-60 nM flowed; single-cycle, 1:1 Langmuir fit; apparent; capture/MW 0.423374464 RU/kDa.
Assay [22] concerns the target zanidatamab precursor (human). As to the kind of experiment: SPR; zani precursor captured on immobilised goat anti-human Fc (CM5, Biacore T200), HER2 ECD 3.75-60 nM flowed; single-cycle, 1:1 Langmuir fit; apparent; capture/MW 0.164867939 RU/kDa.
Assay [23] deals with zanidatamab (human). As to the kind of experiment: SPR; zani captured on immobilised goat anti-human Fc (CM5, Biacore T200), HER2 ECD 3.75-60 nM flowed; single-cycle, 1:1 Langmuir fit; apparent; capture/MW 1.306405834 RU/kDa.
The target in assay [24] is zanidatamab precursor (human). As to the kind of experiment: SPR; zani precursor captured on immobilised goat anti-human Fc (CM5, Biacore T200), HER2 ECD 3.75-60 nM flowed; single-cycle, 1:1 Langmuir fit; apparent; capture/MW 2.00002417 RU/kDa.
Assay [25] deals with zanidatamab (human). Nature of the assay: SPR; zani captured on immobilised goat anti-human Fc (CM5, Biacore T200), HER2 ECD 3.75-60 nM flowed; single-cycle, 1:1 Langmuir fit; apparent; capture/MW 0.856252506 RU/kDa.
In assay [26] the target is zanidatamab precursor (human). Nature of the assay: SPR; zani precursor captured on immobilised goat anti-human Fc (CM5, Biacore T200), HER2 ECD 3.75-60 nM flowed; single-cycle, 1:1 Langmuir fit; apparent; capture/MW 0.571435477 RU/kDa.
Assay [27] addresses Zanidatamab (human). As to the kind of experiment: AUC; sedimentation velocity, HER2 ECD and antibody equimolar (1x), 1 mg/mL total protein in DPBS, 20 °C, c(s) model.
Assay [28] deals with zanidatamab precursor (human). Nature of the assay: SPR; zani precursor captured on immobilised goat anti-human Fc (CM5, Biacore T200), HER2 ECD 3.75-60 nM flowed; single-cycle, 1:1 Langmuir fit; apparent; capture/MW 0.083234299 RU/kDa.
In assay [29] the target is zanidatamab precursor (human). As to the kind of experiment: SPR; zani precursor captured on immobilised goat anti-human Fc (CM5, Biacore T200), HER2 ECD 3.75-60 nM flowed; single-cycle, 1:1 Langmuir fit; apparent; capture/MW 1.008415548 RU/kDa.
Assay [30] deals with zanidatamab precursor (human). As to the kind of experiment: SPR; zani precursor captured on immobilised goat anti-human Fc (CM5, Biacore T200), HER2 ECD 3.75-60 nM flowed; single-cycle, 1:1 Langmuir fit; apparent; capture/MW 0.790725842 RU/kDa.
The target in assay [31] is zanidatamab precursor (human). Nature of the assay: SPR; zani precursor captured on immobilised goat anti-human Fc (CM5, Biacore T200), HER2 ECD 3.75-60 nM flowed; single-cycle, 1:1 Langmuir fit; apparent; capture/MW 2.11927331 RU/kDa.
The target in assay [32] is zanidatamab precursor (human). As to the kind of experiment: SPR; zani precursor captured on immobilised goat anti-human Fc (CM5, Biacore T200), HER2 ECD 3.75-60 nM flowed; single-cycle, 1:1 Langmuir fit; apparent; capture/MW 3.817573146 RU/kDa.
Assay [33] has as its target zanidatamab precursor (human). Nature of the assay: SPR; zani precursor captured on immobilised goat anti-human Fc (CM5, Biacore T200), HER2 ECD 3.75-60 nM flowed; single-cycle, 1:1 Langmuir fit; apparent; capture/MW 1.970411967 RU/kDa.
Assay [34] concerns the target Zanidatamab (human). Nature of the assay: SPR; Biacore T200; goat anti-human Fc polyclonal Ab amine-coupled to about 2000 RU on a CM5 chip captures the antibody; increasing concentrations of HER2 ECD injected; single-cycle kinetics, 1:1 binding model; KD of zanidatamab called apparent.
In assay [35] the target is T1, Recombinant human HER2 ECD (Homo sapiens, UniProt P04626).
T1 construct: human epidermal growth factor receptor 2 (HER2), extracellular domain, recombinant; printed mass 72 kDa; The supplier is named for the SPR only; source: bought: Acro Inc
The description is as above. The following applies: both partners purified.

As for “Recombinant human HER2 ECD (from UniProt P04626 23-652) (domain or fragment)”, the Kd in assay [1] was found to be 0.149 nM; in [2], 0.0358 nM; in assay [3], 0.311 nM; in assay [4], 0.679 nM; in assay [5], 0.0932 nM; in [6], 0.0801 nM. In addition, the Kd turned out to be 0.175 nM in assay [7]; 0.663 nM in [8]; 0.0997 nM in assay [9]; 0.654 nM in assay [10]; 0.743 nM in assay [11]; 0.927 nM in assay [12]. Moreover, the Kd came out at 0.0931 nM in assay [13]; 0.318 nM in assay [14]; 0.0468 nM in [15]; 0.992 nM in assay [16]; 1.12 nM in assay [17]; 0.119 nM in [18]. Moreover, the Kd in assay [19] came to 0.0989 nM; in [20], 0.169 nM; in assay [21], 2.02 nM; in [22], 0.879 nM; in [23], 0.0913 nM; in [24], 0.152 nM. Moreover, the Kd in assay [25] was determined as 0.174 nM; in assay [26] it was 0.687 nM; in assay [28], 0.89 nM; in assay [29] it was 0.49 nM; in assay [30] it was 0.992 nM; in [31], 0.475 nM. In addition, the Kd in [32] is 0.136 nM; in assay [33], 0.46 nM; in assay [34] it was 0.74 nM. Further, in [27], the percent of the total peak area in multimeric complexes came out at 95%.

B1: Monovalent one-armed Ab (OAA) with the affinity-improved anti-HER2-ECD2 Fab (antibody, V domains shown)
VH: EVQLVESGGGLVQPGGSLRLSCAASGFTFADYTMDWVRQAPGKGLEWVGDVNPNSGGSIYNQRFKGRFTFSVDRSKNTLYLQMNSLRAEDTAVYYCARNLGPSFYFDYWGQGTLVTVSS
VL: DIQMTQSPSSLSASVGDRVTITCKASQDVSIGVAWYQQKPGKAPKLLIYSASYRYTGVPSRFSGSGSGTDFTLTISSLQPEDFATYYCQQYYIYPATFGQGTKVEIK
notes: as the light chain of m3; also called one variant; copies: + +
Regarding B1, in assay [35], the Kd is 1.7 nM.
